Measurements published in publication PMC11243337, “Self-Responsive Fluorescence Aptasensor for Lactoferrin Determination in Dairy Products”.

Biological target: Lactoferrin (Lf) (bovine (cow's milk), UniProt P24627 20-708)
Experiment: fluorescence quenching (6-FAM); Tris-EDTA, no added ions; Lf 5 and 40 ug/mL; Tris-EDTA pH 8.0, no added salt, 25 C, 10 min; 90 uL of 50 nM aptamer + 100 uL Lf (0-100 ug/mL); Ex 485/Em 528 nm. Specificity section (alpha-La, beta-Lg, BSA)
Details: protein: commercial; label: 3'-6-FAM

Lactoferrin (Lf), sequence (P24627 20-708): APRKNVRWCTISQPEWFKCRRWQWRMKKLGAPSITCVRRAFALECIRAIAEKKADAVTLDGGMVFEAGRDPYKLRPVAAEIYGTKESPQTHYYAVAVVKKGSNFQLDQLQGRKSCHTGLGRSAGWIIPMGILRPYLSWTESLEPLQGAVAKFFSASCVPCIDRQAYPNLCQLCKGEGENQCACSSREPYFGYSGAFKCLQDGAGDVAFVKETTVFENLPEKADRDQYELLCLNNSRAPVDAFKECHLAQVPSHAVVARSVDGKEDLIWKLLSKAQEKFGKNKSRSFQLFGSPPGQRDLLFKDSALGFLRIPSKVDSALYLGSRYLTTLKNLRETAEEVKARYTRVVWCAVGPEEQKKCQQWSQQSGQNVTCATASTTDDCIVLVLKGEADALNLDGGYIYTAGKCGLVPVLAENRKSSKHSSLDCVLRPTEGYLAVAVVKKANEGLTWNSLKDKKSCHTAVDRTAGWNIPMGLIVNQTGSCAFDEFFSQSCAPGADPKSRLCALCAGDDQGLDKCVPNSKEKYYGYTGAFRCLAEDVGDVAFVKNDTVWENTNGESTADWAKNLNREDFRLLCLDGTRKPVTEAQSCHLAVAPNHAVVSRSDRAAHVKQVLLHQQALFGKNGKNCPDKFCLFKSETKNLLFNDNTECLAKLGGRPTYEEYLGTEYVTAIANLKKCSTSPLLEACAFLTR

B1: Lf aptamer, 3'-6-FAM (ssDNA)
DNA: TGGTGCTGCCCCTAGTCTCCGGCTGATAGCTGCTTCTTGG
Question: Does B1 bind?
Answer: binds
